The experiment deals with T1, Lex-FKBP (human, UniProt P0A7C2 1-87; P62942 2-108).
T1 construct: range 1-87;range 2-108; Translated in vitro in reticulocyte lysate; also called L87G6FKBP; p19BL87G6FKBP
As to the kind of experiment: gel mobility shift with in vitro translated proteins and LexCon DNA probe, rapamycin added.

B1: Lex-FRAP (other, UniProt P0A7C2 1-87, looked up, not shown: small tags and cut ends)
chain: MKALTARQQEVFDLIRDHISQTGMPPTRAEIAQRLGFRSPNAAEEHLKALARKGVIEIVSGASRGIRLLQEEEEGLPLVGRVAAGEPEMWHEGLEEASRLYFGERNVKGMFEVLEPLHAMMERGPQTLKETSFNQAYGRDLMEAQEWCRKYMKSGNVKDLTQAWDLYYHVFRRISK
notes: range 1-87;range 2025-2113; Translated in vitro in reticulocyte lysate; Junction residues from the SpeI-XbaI ligation are not spelled out; also called L87FRB; p19BL87FRB
As to B1, the binding result is “binds”.

These data come from US20030206891A1 (ARIAD GENE THERAPEUTICS, published 2003).
